Measurements taken from patent US20210115447, “NUCLEIC ACID APTAMERS TARGETING LYMPHOCYTE ACTIVATION GENE 3 (LAG-3) AND USES THEREOF” (Oneness Biotech Co., Ltd., published 2021).

T1: LAG-3 (lymphocyte activation gene 3) (Homo sapiens, UniProt P18627 P18627:23-450)
T1 sequence: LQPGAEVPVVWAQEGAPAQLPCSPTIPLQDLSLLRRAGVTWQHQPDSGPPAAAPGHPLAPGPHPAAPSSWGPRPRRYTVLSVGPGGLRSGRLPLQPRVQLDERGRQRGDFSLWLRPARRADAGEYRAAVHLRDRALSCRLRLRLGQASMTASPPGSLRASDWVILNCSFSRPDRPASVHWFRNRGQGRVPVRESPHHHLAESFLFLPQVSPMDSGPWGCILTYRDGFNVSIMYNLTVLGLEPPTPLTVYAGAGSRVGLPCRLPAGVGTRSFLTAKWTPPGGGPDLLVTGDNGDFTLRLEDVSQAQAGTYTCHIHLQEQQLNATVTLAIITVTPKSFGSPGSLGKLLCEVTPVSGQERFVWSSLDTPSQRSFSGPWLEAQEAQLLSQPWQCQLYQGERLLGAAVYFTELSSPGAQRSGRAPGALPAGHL

B1: 5'Bio-B4 (ssDNA)
DNA: TCCCTACGGCGCTAACTGGGGGGGGTTAGTTCAATACATGCGGGCGGCCACCGTGCTACAAC
B2: 5'Bio-B4-SL4 (ssDNA)
DNA: CTGGGGGGGGTTAGTTCAATACATGCGGGCGGCCA
B3: 5'Bio-B4-SL3 (ssDNA)
DNA: GCTAACTGGGGGGGGTTAGTTCAATACATGCGGGC
B4: 5'Bio-B4-SL2 (ssDNA)
DNA: ACGGCGCTAACTGGGGGGGGTTAGTTCAATACATG
B5: B8 (ssDNA)
DNA: TCCCTACGGCGCTAACTGGGGGGGGGTTAGACTTACACTCTTATTCGGCCACCGTGCTACAAC

Experiments:
[1] = target: T1, LAG-3 (lymphocyte activation gene 3); experiment: pulldown; His-LAG-3 on nickel beads, bound aptamer eluted and detected by qPCR; settings: tags: His-tagged, attached to nickel coated beads or plate wells; label: 5'-biotin
[2] = target: T1, LAG-3 (lymphocyte activation gene 3); experiment: pulldown; His-LAG-3 on nickel beads, qPCR; settings: tags: His-tagged, attached to nickel coated beads or plate wells; label: 5'-biotin
Method: (§1) To directly test binding of LAG-3 aptamers to LAG-3, in vitro binding assays were performed using His-tagged recombinant LAG-3 attached to nickel coated beads or nickel coated wells of a plate. Bound LAG-3 aptamers were eluted and detected by qPCR. Using the bead based assay, binding of aptamers B4 and B8 to recombinant LAG-3 increased in a concentration dependent manner. FIG. 1C. […] FIG. 1D.
To identify the minimal sequence of aptamer B4 that is involved in binding to LAG-3, various truncated versions of aptamer B4 were prepared and their binding activities to LAG-3 were investigated in the binding assays described herein, using R9R as a negative control. Aptamer sequences of these truncated versions of aptamer B4 and their dissociation constants (Kds) for binding to recombinant LAG-3 are shown in Table 2. Binding of aptamers B4, B4-SL2, B4-SL3, and B4-SL4 to recombinant LAG-3 increased in a concentration dependent manner. FIG. 1E. […] FIG. 1E.

[3] = target: T1, LAG-3 (lymphocyte activation gene 3); experiment: pulldown; concentration dependent; nickel beads, qPCR; settings: tags: His-tagged, attached to nickel coated beads or plate wells
Method: as §1

Binder	Kd [2] [nM]	also measured
B1		Kd [1]: 38.1 nM
B2	9.47	
B3	10.7	
B4	8.05	
B5		binding result [3]: binds
